For experiment [1], the target named is ZV54^CHO (CHO cell-derived ZV54 mAb). Description: SPR. The note with it: remark: other sources report otherwise.
The target of experiment [2] is ZV54^ΔXF (ZV54 mAb expressed in glycoengineered ΔXF N. benthamiana plants). Description: SPR. The note with it: remark: other sources report otherwise.

B1: recombinant human FcγRIIA ectodomain, P12318 34-217 (receptor)
chain: QAAAPPKAVLKLEPPWINVLQEDSVTLTCQGARSPESDSIQWFHNGNLIPTHTQPSYRFKANNNDSGEYTCQTGQTSLSDPVHLTVLSEWLVLQTPHLEFQEGETIMLRCHSWKDKPLVKVTFFQNGKSQKFSHLDPTFSIPQANHSHSGDYHCTGNIGYTLFSSKPVTITVQVPSMGSSSPMG
modifications: not checked
Take B1: the figures for the dissociation constant (Kd) in experiment [1] and in experiment [2] were 662 nM and 1890 nM, respectively.

Source of the values: article PMC10221487.
